Experimental data: paper PMC6642535

Molecular target: Flag-tagged wild-type GAPDH (human) (UniProt P04406)
Experiment: native gel or EMSA; lysates of stable PANC-1 lines (GFP/wild-type GAPDH, GFP-PRMT3/wild-type GAPDH, GFP-PRMT3/R248K-GAPDH) on 10% native gel; tetrameric form

Sequence of Flag-tagged wild-type GAPDH, P04406 1-335 (enzyme; other documents disagree on this pair) (P04406 whole entry): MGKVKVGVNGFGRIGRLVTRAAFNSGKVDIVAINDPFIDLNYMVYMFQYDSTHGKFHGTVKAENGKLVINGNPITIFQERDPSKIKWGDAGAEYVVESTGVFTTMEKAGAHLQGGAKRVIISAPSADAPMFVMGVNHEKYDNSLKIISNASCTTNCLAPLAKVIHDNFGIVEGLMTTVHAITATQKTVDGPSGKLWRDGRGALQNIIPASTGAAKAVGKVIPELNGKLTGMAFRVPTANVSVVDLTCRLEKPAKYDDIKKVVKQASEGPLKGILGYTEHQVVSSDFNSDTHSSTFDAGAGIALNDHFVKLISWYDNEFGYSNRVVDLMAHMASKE

Substance: Flag-tagged wild-type GAPDH, P04406 1-335 (enzyme; other documents disagree on this pair)
- stoichiometry N: 4
